Data published in a protein production outcome set (Wang et al. 2014).

Experiment: label from the status in PepcDB records

| Sequence | protein production |
| --- | --- |
| MTTIVPTSEENPFLAVVRFTSQLAWADAGPEAAEPEITRLCREAEESMVAEKWLELSSLMVTSAELVSSKISEKDLECTYTIICSIVKNAKSPEQVLEMVKAIASKVAQQPSDKASLRLKILFNLYNLVDHPYARFQVYMKALTLAVDGKVTEYIVSSFKKIDNFLKEWNIDIKDQRELFLAIANVLKENKSLVNESLKFLTKYLATFSNEDAQVLDEAKEEAVRAVIEFVKASSIFQCDLLDLPAVAQLEKDAKYAPVYQLLKIFLTQRLNAYTEFQNANSGFLQSYGLSNEDCVTKMRLLSLVDLASDESGKIPYTSIKDTLQVNEQDVELWIVKAITAKLIESALPNVNLGQSNGNLSEQSLRLGSIITTIESNKVTEEGSQASSSSAAAIQGLSVR | failed |
| MTTKLDPEALNVSEEARERGTGYLNVALFGVDSRDNELEKDTRSDTIMIASLNRETMEVKISSVYRDTLLEQSDGTLNKANAAYSFGGPETAVAMLNKNLDMDIEHYVTVNFNSLIDVIDAVGGVEIDVQEEEIPYICGYAMEIMRVTGRESAGVTEPGVQTLNGIQATAYARIRYTAGDDFKRAERQRDVLTKIVGKLQGASLAQINKIIDKVFPEVSTNFTLAEILEYAKDAFDYKLGETIGFPFDKTTDTLANIGSVVIPVTLDKNVEQLHKFFYGEGDTYSPSSTVNTISGKIVAKAGDRQADTDEDSQGIMQQPDESYTGGGSSGGTKTPSSGGTSGGSSQPTPTPTPTPTPTPEPDPQPQPDPGGDDGSGGSGGDTSGGGAEGTPDAGTQLEHHHHHH | failed |
| MTTLGIVSDTHGYFHPNLADDLSGVDRILHAGDVGDPAILDGLEAVAPVTAVWGNIDDASLRRRLAEHERFTVAGLDVWMTHIAGRPGRWQDGMGTKLEATPPDVLVCGHSHILQVERVAALDDMLYVNPGAAGKQGFHQTKTCLRLAVEDGRATEAAVVHLDPDASPAQAPDP | failed |
| MTTLTAQQIACVYAWLAQLFSRELDDEQLTQIASAQMAEWFSLLKNEPPLTAAVNELENRIATLTVRDDARLELAADFCGLFLMTDKQAALPYASAYKQDEQEIKRLLVEAGMETSGNFNEPADHLAIYLELLSHLHFSLGEGTVPARRIDSLRQKTLTALWQWLPEFVARCRQYDSFGFYAALSQLLLVLVECDHQNR | failed |
| MTTNPYTGEREAGKSAIGAGLGSLVGAGIGALSSSKKDRGKGALIGAAAGAALGGGVGYYMDVQEANVRDKMRGTGVSVTRSGDNIILNMPNNVTFDSSSATLKPAGANTLTGVAMVLKEYPKTAVNVIGYTDSTGGHDLNMRLSQQRADSVASALITQGVDASRIRTQGLGPANPIASNSTAEGKAQNRRVEITLSPLLEHHHHHH | not failed |
| MTTNRYMKGIMWAMLASTLWGVSGTVMQFVSQNQAIPADWFLSVRTLSAGIILLAIGFVQQGTKIFKVFRSWASVGQLVAYATVGLMANMYTFYISIERGTAAAATILQYLSPLFIVLGTLLFKRELPLRTDLIAFAVSLLGVFLAITKGNIHELAIPMDALVWGILSGVTAALYVVLPRKIVAENSPVVILGWGTLIAGILFNLYHPIWIGAPKITPTLVTSIGAIVLIGTIFAFLSLLHSLQYAPSAVVSIVDAVQPVVTFVLSIIFLGLQVTWVEILGSLLVIVAIYILQQYRSDPASD | failed |
| MTTPEGGARKPRIGIMGEFSAGKSTLSNLLLGQRILPEQVTATRLPPVWIVQGDKPAQRAALDGSLHPMSLVDLEEISLEETLYVKIGIDAPVLDECDLIDFPGISDPNMPSEVWERMLAEVDSVLWCTHATQAWRQSEAAAWGMVPEAVRQRSLLLITRFDKLTTPLDKLRVQTRVARETEGLFAGVCPISLTEALAAAPDSPEWEASGAETFADALEAVVRAAACGGLPEAMPAQTQLTAPAAPEPAEPSTSAPQPAPGRVMPRRVRPKGETRTPRPSARPQAADQDLSALRREMQET | failed |
| MTTPGKLNKARVPPYKTAGLGLVLVFALVVALVYLQFRGEFTPKTQLTMLSARAGLVMDPGSKVTYNGVEIGRVDTISEVTRDGESAAKFILDVDPRYIHLIPANVNADIKATTVFGGKYVSLTTPKNPTKRRITPKDVIDVRSVTTEINTLFQTLTSIAEKVDPVKLNLTLSAAAEALTGLGDKFGESIVNANTVLDDLNSRMPQSRHDIQQLAALGDVYADAAPDLFDFLDSSVTTARTINAQQAELDSALLAAAGFGNTTADVFDRGGPYLQRGVADLVPTATLLDTYSPELFCTIRNFYDADPLAKAAAGGGNGYSLRTNSEILSGIGISLLSPLALATNGAAIGIGLVAGLIASPLAVAANLAGALPGIVGGAPNPYTYPENLPRVNARGGPGGAPGCWQPITRDLWPAPYLVMDTGASLAPYNHMEVGSPYAVEYVWGRQVGDNTINP | failed |
